According to patent publication US10836815B2, “Generation and comparative kinetic analysis of new glycosynthase mutants from Streptococcus pyogenes endoglycosidases for antibody glycoengineering” (UNIVERSITY OF MARYLAND, COLLEGE PARK, priority 2017, dated 2020):
Changes are numbered by the printed parent chain. Numbers in names are those of the source.

B1: Endo-S2 D184M (protein)
chain: EEKTVQTGKTDQQVGAKLVQEIREGKRGPLYAGYFRTWHDRASTGIDGKQQHPENTMAEVPKEVDILFVFHDHTASDSPFWSELKDSYVHKLHQQGTALVQTIGVNELNGRTGLSKDYPDTPEGNKALAAAIVKAFVTDRGVDGLDIMIEHEFTNKRTPEEDARALNVFKEIAQLIGKNGSDKSKLLIMDTTLSVENNPIFKGIAEDLDYLLRQYYGSQGGEAEVDTINSDWNQYQNYIDASQFMIGFSFFEESASKGNLWFDVNEYDPNNPEKGKDIEGTRAKKYAEWQPSTGGLKAGIFSYAIDRDGVAHVPSTYKNRTSTNLQRHEVDNISHTDYTVSRKLKTLMTEDKRYDVIDQKDIPDPALREQIIQQVGQYKGDLERYNKTLVLTGDKIQNLKGLEKLSKLQKLELRQLSNVKEITPELLPESMKKDAELVMVGMTGLEKLNLSGLNRQTLDGIDVNSITHLTSFDISHNSLDLSEKSEDRKLLMTLMEQVSNHQKITVKNTAFENQKPKGYYPQTYDTKEGHYDVDNAEHDILTDFVFGTVTKRNTFIGDEEAFAIYKEGAVDGRQYVSKDYTYEAFRKDYKGYKVHLTASNLGETVTSKVTATTDETYLVDVSDGEKVVHHMKLNIGSGAIMMENLAKGAKVIGTSGDFEQAKKIFDGEKSDRFFTWGQTNWIAFDLGEINLAKEWRLFNAETNTEIKTDSSLNVAKGRLQILKDTTIDLEKMDIKNRKEYLSNDENWTDVAQMDDAKAIFNSKLSNVLSRYWRFCVDGGASSYYPQYTELQILGQRLSNDVANTLKD
B2: Endo-S2 D184A (protein)
chain: B1 chain with M148A
B3: Endo-S D233A (protein)
chain: MDKHLLVKRTLGCVCAATLMGAALATHHDSLNTVKAEEKTVQVQKGLPSIDSLHYLSENSKKEFKEELSKAGQESQKVKEILAKAQQADKQAQELAKMKIPEKIPMKPLHGPLYGGYFRTWHDKTSDPTEKDKVNSMGELPKEVDLAFIFHDWTKDYSLFWKELATKHVPKLNKQGTRVIRTIPWRFLAGGDNSGIAEDTSKYPNTPEGNKALAKAIVDEYVYKYNLDGLDVAVEHDSIPKVDKKEDTAGVERSIQVFEEIGKLIGPKGVDKSRLFIMDSTYMADKNPLIERGAPYINLLLVQVYGSQGEKGGWEPVSNRPEKTMEERWQGYSKYIRPEQYMIGFSFYEENAQEGNLWYDINSRKDEDKANGINTDITGTRAERYARWQPKTGGVKGGIFSYAIDRDGVAHQPKKYAKQKEFKDATDNIFHSDYSVSKALKTVMLKDKSYDLIDEKDFPDKALREAVMAQVGTRKGDLERFNGTLRLDNPAIQSLEGLNKFKKLAQLDLIGLSRITKLDRSVLPANMKPGKDTLETVLETYKKDNKEEPATIPPVSLKVSGLTGLKELDLSGFDRETLAGLDAATLTSLEKVDISGNKLDLAPGTENRQIFDTMLSTISNHVGSNEQTVKFDKQKPTGHYPDTYGKTSLRLPVANEKVDLQSQLLFGTVTNQGTLINSEADYKAYQNHKIAGRSFVDSNYHYNNFKVSYENYTVKVTDSTLGTTTDKTLATDKEETYKVDFFSPADKTKAVHTAKVIVGDEKTMMVNLAEGATVIGGSADPVNARKVFDGQLGSETDNISLGWDSKQSIIFKLKEDGLIKHWRFFNDSARNPETTNKPIQEASLQIFNIKDYNLDNLLENPNKFDDEKYWITVDTYSAQGERATAFSNTLNNITSKYWRVVFDTKGDRYSSPVVPELQILGYPLPNADTIMKTVTTAKELSQQKDKFSQKMLDELKIKEMALETSLNSKIFDVTAINANAGVLKDCIEKRQLLKK
B4: Endo-S WT: wild-type Endo-S, endo-β-N-acetylglucosaminidase of Streptococcus pyogenes (SEQ ID NO: 1) (protein)
chain: B3 chain with A233D
modifications: Streptococcus pyogenes
B5: Endo-S D233Q (protein)
chain: B3 chain with A233Q

How the values were obtained:
Assay type in all cases: biochemical
[1] = Kinetic measurements (KM, Vmax) of Endo-S/Endo-S2 mutants for SCT-Oxa; settings: for Km / kcat: donor substrate SCT-Oxa, PBS pH 7.4, 30° C.
Description: Using a sialylated glycan oxazoline (SCT-Oxa) as the donor and the deglycosylated rituximab as the acceptor substrate, we measured the kinetic parameters of the enzyme catalyzed glycosylation were measured. A mass spectrometry-based approach with an internal standard was used to estimate the product formation.^31-33.
(§1) Peptide-N-Glycosidase F (PNGase F) treated rituximab was used as the internal standard due to its similarities to the deglycosylated and transferred product in terms of their molecular structures and ionization efficiencies. After PNGase F treatment, a mutation will be introduced into the amino acid sequence of rituximab so the product antibody will not interfere with the reaction via re-glycosylation^35. A standard product S2G2F-rituximab was synthesized following the previously reported procedure^29. […] Serial dilutions containing a gradient of S2G2F-rituximab (0, 0.25, 0.5, 0.75, 1.0, 1.25 and 1.5 μM) were mixed with a stock solution containing 0.67 μM internal standard. These mixed sample solutions were quantified by selected ion monitoring (SIM) to calculate the single-point normalization factor^31. The factor could then be used to calculate the relative amount of the final product N-glycoform for each reaction in the following experiments.
Measurements of KM and Vmax for SCT-oxa. Serial dilutions with a total volume of 10 μL were prepared with a gradient of SCT-oxa concentrations and a constant deglycosylated antibody concentration mixed in PBS, pH 7.4. Each reaction was initiated by adding 1μμL, of Endo-S/S2 mutants with a concentration of 0.1 mg/M1 and the reaction was conducted at 30° C. The concentrations of SCT-oxa were within a range from 6.25 μM to 400 μM. For each reaction, three aliquots were taken at t=1, 2 and 3 min and immediately quenched in 100 μL 0.1% formic acid. The quenched reaction samples were then characterized by ESI-MS, and the concentration of product in each mixture was calculated using the normalization factor, as shown above. […] The KM and Vmax were measured by fitting the initial velocity against the SCT-oxa concentration using the GraphPad Prism7 program. The experiments were conducts in triplicate to determine the error in these measurements.

deglycosylated rituximab [2] = assay: Kinetic measurements (KM, Vmax) of Endo-S/Endo-S2 mutants for deglycosylated rituximab
Source text: as §1
Measurements of KM and Vmax for SCT-oxa. Serial dilutions with a total volume of 10 μL were prepared with a gradient of SCT-oxa concentrations and a constant deglycosylated antibody concentration mixed in PBS, pH 7.4. Each reaction was initiated by adding 1μμL, of Endo-S/S2 mutants with a concentration of 0.1 mg/M1 and the reaction was conducted at 30° C. The concentrations of SCT-oxa were within a range from 6.25 μM to 400 μM. For each reaction, three aliquots were taken at t=1, 2 and 3 min and immediately quenched in 100 μL 0.1% formic acid. The quenched reaction samples were then characterized by ESI-MS, and the concentration of product in each mixture was calculated using the normalization factor, as shown above. A linear progression curve was confirmed for each reaction by sampling at multiple early time points and plotting them in the same graph, which emphasized that the V0 measured indeed represents the initial rate of each reaction. The KM and Vmax were measured by fitting the initial velocity against the SCT-oxa concentration using the GraphPad Prism7 program. The experiments were conducts in triplicate to determine the error in these measurements.
The KM and Vmax values of both Endo-S and Endo-S2 mutants for the deglycosylated antibody substrate were measured in a similar fashion as to those for SCT-Oxa. In the serial reactions, the concentrations of antibody range from 0.313 μM to 20 μM, whereas the SCT-Oxa concentration was fixed at 400 μM. A similar control reaction was also performed for each concentration to monitor the non-enzymatic side reactions.

deglycosylated rituximab [3] = assay: Transglycosylation activity assay of Endo-S and D233 mutants, LC-ESI-MS; settings: for Transglycosylation Activity: deglycosylated rituximab 10.0 mg/mL, SCT-Oxa 1.38 mM (20 eq), enzyme 0.01 mg/mL, PBS pH 7.4, 30° C., duplicate; for Transglycosylation/Hydrolysis Ratio T/H: ratio of transglycosylation to hydrolysis activity, Table 1
Description: (§2) The hydrolytic activity of the mutants generated was evaluated using rituximab as the substrate, and the transglycosylation activity was evaluated using the sugar oxazoline and the deglycosylated rituximab as the donor and acceptor substrates, respectively (Scheme 1).
(§3) The LC-MS characterization of different antibody glycoforms was conducted on an Exactive Plus Orbitrap instrument (Thermo Scientific). The intact antibody sample was analyzed with a Waters XBridge™ BEH300 C4 column (3.5 μm, 2.1×50 mm). The program includes a 9 min linear gradient of 5-90% MeCN containing 0.1% formic acid at a flow rate of 0.4 mL/min. The original mass data were processed through deconvolution and integration through MagTran Software (Amgen).
as §1
(§4) The hydrolytic activity of each Endo-S mutants and the wild-type (0.01 mg/mL) was assayed in PBS (pH 7.4, 10 μl) at 30° C. with synthetic biantennary sialo-complex-type rituximab (1.0 mg/mL, 6.9 μM) as the starting material. Each reaction was terminated at 5 min and an aliquot was taken from the reaction mixture and dissolved in 0.1% formic acid. The relative quantity of the hydrolysis product was calculated through deconvolution and integration of the selected MS peaks. The experimental details of product quantification using LC-MS are illustrated below. The transglycosylation activity of Endo-S was measured in a similar fashion: deglycosylated Rituximab (10.0 mg/mL, 69 μM) was incubated with SCT-Oxa (1.38 mM, 20 eq) under catalysis of Endo-S enzymes (0.01 mg/mL) under the same condition as hydrolysis. The transglycosylation product SCT-Rituximab was analyzed as mentioned above. Both functional assays were repeated twice for each mutant and the wild-type, and the average activity was recorded

rituximab = assay: Hydrolysis activity assay of Endo-S and D233 mutants, LC-ESI-MS; settings: rituximab 1.0 mg/mL as substrate, enzyme 0.01 mg/mL, PBS pH 7.4, 30° C., 5 min, duplicate
Description: as §2, §3, §1, §4

[4] = Endo-S2, glycan oxazoline substrate
[5] = Endo-S2 mutants, acceptor substrate deglycosylated rituximab, SCT-Oxa fixed at 400 μM

Row | Molecule | Km ([1]; Endo-S2 mutants) | kcat ([1]; Endo-S2 mutants) | Km (deglycosylated rituximab [2]; [5]) | Transglycosylation Activity (deglycosylated rituximab [3]) | Transglycosylation/Hydrolysis Ratio T/H (deglycosylated rituximab [3]) | Specific Hydrolysis Activity (rituximab) | further results
1 | B1 | 229 ± 34.8 µM | 2.7968 ± 0.3417 s⁻¹ | 32.6 ± 6.71 µM |  |  |  | decrease in substrate affinity (KM) versus D184A [1, 4]: less than 2 fold; increase in catalytic turnover numbers (kcat) over D184A [1, 4]: more than 15 fold; increase in kcat/KM over D184A ([1]; Endo-S2, sugar oxazoline substrate): more than 10 fold; catalytic turnover number compared with Endo-S D233M (in words) ([1]; for both the sugar oxazoline and the antibody substrates): significantly higher catalytic turnover number than Endo-S D233M; substrate affinity for the deglycosylated antibody (in words) (deglycosylated rituximab [2]; Asp-to-Met versus Asp-to-Ala mutant): significantly higher substrate affinity for the antibody than the Endo-S2 D184A mutant; kcat (deglycosylated rituximab [2]; [5]): 0.4973 ± 0.155 s⁻¹
2 | B2 | 121 ± 17.1 µM | 0.17 ± 0.0395 s⁻¹ | > 680 µM |  |  |  | KM value relative to Endo-S2 D184M (deglycosylated rituximab [2]; deglycosylated rituximab): more than 20 times
3 | B3 |  |  |  | 1.06 100*(μmol/min/mg) | 17.67 | 0.06 100*(μmol/min/mg) | Km ([1]; Endo-S mutants): 87.9 ± 10.1 µM; kcat ([1]; Endo-S mutants): 0.0223 ± 0.00317 s⁻¹; Km (deglycosylated rituximab [2]; Endo-S mutants, acceptor substrate deglycosylated rituximab, SCT-Oxa fixed at 400 μM): > 200 µM
4 | B4 |  |  |  | 25.89 100*(μmol/min/mg) | 9.35 | 2.77 100*(μmol/min/mg) | 
5 | B5 |  |  |  | 0.98 100*(μmol/min/mg) | 19.60 | 0.05 100*(μmol/min/mg) | 
